For one substance, stoichiometry N results are on record in publication PMC10470788.

For orientation: stoichiometry N means a count of units in the complex or per binding partner.

The target of test [1] is BxpB (recombinant, 167 residues, His6 tag removed with Factor Xa) (Bacillus anthracis (Sterne strain)) (UniProt S5W424). As to the kind of experiment: SEC-MALS. For orientation: SEC sorts molecules by how far they enter the pores of the column.
The target is the same in test [2]. Briefly: crystal structure.

“BxpB (recombinant, 167 residues, His6 tag removed with Factor Xa) (from UniProt S5W424 1-167) (natural protein)”: the stoichiometry N in test [1] and in test [2] was 3 throughout.
